In publication PMC6138639 (2018):
Numbering of substitutions follows the chain as printed. Values belong to the binder of their own block, whether it stands above or below them. Where no end group is shown, it is not given here. Me3 = N6,N6,N6-trimethyl (lysine)

How the values were obtained:
[1] = biological target: T1, 15N-labeled WT ZZZ3-ZZ used in NMR titrations (human); experiment: NMR
T1 chain: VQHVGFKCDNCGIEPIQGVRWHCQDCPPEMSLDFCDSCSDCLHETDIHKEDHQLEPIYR

[2] = biological target: T2, 15N-labeled ZZZ3-ZZ F821A used in NMR titrations (human); experiment: NMR
T2 chain: T1 chain with F6A

H3K4me3 (1-12) peptide = biological target: T3, H3K4me3 (1-12) peptide (Homo sapiens); experiment: tryptophan fluorescence
T3 chain: H-ARTK(Me3)QTARKSTG

- Kd [1]: 42 µM
- Kd [2]: 400 µM
Binder: ARTKQTARKSTG [unmodified H3 peptide of the tryptophan fluorescence and NMR titration experiments]

- Kd (H3K4me3 (1-12) peptide): 22 µM
B1: ZZZ3 ZZ domain (aa 800–903), GST cleaved (domain or fragment)
chain: KLKKQKLQQMQAESGFVQHVGFKCDNCGIEPIQGVRWHCQDCPPEMSLDFCDSCSDCLHETDIHKEDHQLEPIYRSETFLDRDYCVSQGTSYNYLDPNYFPANR

- Kd [1]: 14 µM
- Kd [2]: 480 µM
Binder: ARTK(Ac)QTAR [H3K4ac peptide of the tryptophan fluorescence and NMR titration experiments]
